Test results taken from patent US20260193342A1 (ZOETIS SERVICES, published 2026).
Numbering of substitutions follows the chain as printed. Each block holds one binder with its values, some of them ahead of it.

Key:
[1] = molecular target: T1, canine FcRn complex (FcRn-α subunit and β-microglobulin) (canine, UniProt A0A8I3PFR8 25-347, biotin on the BAP tag by BirA (Example 5 only)); assay: SPR (Biacore), biotinylated FcRn on SA chip, IgG flowed, pH 7.4, 15 C
[2] = molecular target: T1, canine FcRn complex (FcRn-α subunit and …); assay: SPR (Biacore), biotinylated FcRn on SA chip, IgG flowed, pH 6, 15 C
[3] = molecular target: T1, canine FcRn complex (FcRn-α subunit and …); assay: SPR (Biacore), biotinylated FcRn on SA chip, IgG flowed, pH 7.4, 15 C; remark: listed apart in the source
[4] = molecular target: T1, canine FcRn complex (FcRn-α subunit and …); assay: SPR (Biacore), biotinylated FcRn on SA chip, IgG flowed, pH 6, 15 C; remark: listed apart in the source
[5] = molecular target: NGF (target protein of mAb2); assay: cell-based or functional assay
[6] = molecular target: NGF (target protein of mAb2); assay: SPR (Biacore T200), target amine-coupled to CM5, antibody flowed, 15 C, 1:1 model
[7] = molecular target: canine FcRn complex (FcRn-α subunit and β-microglobulin) (canine); assay: SPR (Biacore), FcRn amine-coupled to CM5, IgG flowed, pH 6, 15 C

T1 sequence (A0A8I3PFR8 entry or part of it, one chain of several): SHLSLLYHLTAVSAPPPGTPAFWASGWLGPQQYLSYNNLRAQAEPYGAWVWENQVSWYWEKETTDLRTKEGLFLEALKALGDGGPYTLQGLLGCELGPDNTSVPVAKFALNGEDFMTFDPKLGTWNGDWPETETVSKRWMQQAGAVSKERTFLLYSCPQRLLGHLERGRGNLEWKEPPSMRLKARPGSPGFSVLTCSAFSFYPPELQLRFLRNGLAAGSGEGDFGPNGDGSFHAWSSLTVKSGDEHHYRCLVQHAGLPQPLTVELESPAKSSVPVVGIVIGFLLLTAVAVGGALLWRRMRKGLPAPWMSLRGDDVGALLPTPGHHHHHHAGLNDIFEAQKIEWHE

Kd [1]: 22800 nM
Kd [2]: 2.76 nM
B1: mAb2 of Table 4A, caninized anti-NGF antibody ZTS-841, canine IgGB, N434I (antibody)
heavy: EVQLVESGGDLVKPGGSLRLSCVASGFTFSSHGMHWVRQSPGKGLQWVAVINSGGSSTYYTDAVKGRFTISRDNAKNTVYLQMNSLRAEDTAMYYCAKESVGGWEQLVGPHFDYWGQGTLVIVSSASTTAPSVFPLAPSCGSTSGSTVALACLVSGYFPEPVTVSWNSGSLTSGVHTFPSVLQSSGLYSLSSMVTVPSSRWPSETFTCNVAHPASKTKVDKPVPKRENGRVPRPPDCPKCPAPEMLGGPSVFIFPPKPKDTLLIARTPEVTCVVVDLDPEDPEVQISWFVDGKQMQTAKTQPREEQFNGTYRVVSVLPIGHQDWLKGKQFTCKVNNKALPSPIERTISKARGQAHQPSVYVLPPSREELSKNTVSLTCLIKDFFPPDIDVEWQSNGQQEPESKYRTTPPQLDEDGSYFLYSKLSVDKSRWQRGDTFICAVMHEALHIHYTQESLSHSPGK
VL: QSVLTQPTSVSGSLGQRVTISCSGSTNNIGILGASWYQLFPGKAPKLLVYGNGNRPSGVPDRFSGADSGDSVTLTITGLQAEDEADYYCQSFDTTLGAHVFGGGTHLTVL
notes: also called ID No. 50

Kd [1]: 594 nM
Kd [2]: 1.93 nM
B2: mAb2 of Table 4A, caninized anti-NGF antibody ZTS-841, canine IgGB, N434K (antibody)
heavy: B1 heavy with I447K
VL: B1 VL
notes: also called ID No. 51

Kd [1]: 33700 nM
Kd [2]: 30.7 nM
B3: mAb1, caninized anti-IL31 antibody 34D03, canine IgGB, N434F (antibody)
heavy: EVQLVESGGDLVKPGGSLRLSCVASGFTFSNYGMSWVRQAPGKGLQWVATISYGGSYTYYPDNIKGRFTISRDNAKNTLYLQMNSLRAEDTAMYYCVRGYGYDTMDYWGQGTLVTVSSASTTAPSVFPLAPSCGSTSGSTVALACLVSGYFPEPVTVSWNSGSLTSGVHTFPSVLQSSGLYSLSSMVTVPSSRWPSETFTCNVAHPASKTKVDKPVPKRENGRVPRPPDCPKCPAPEMLGGPSVFIFPPKPKDTLLIARTPEVTCVVVDLDPEDPEVQISWFVDGKQMQTAKTQPREEQFNGTYRVVSVLPIGHQDWLKGKQFTCKVNNKALPSPIERTISKARGQAHQPSVYVLPPSREELSKNTVSLTCLIKDFFPPDIDVEWQSNGQQEPESKYRTTPPQLDEDGSYFLYSKLSVDKSRWQRGDTFICAVMHEALHFHYTQESLSHSPGK
light: EIVMTQSPASLSLSQEEKVTITCKASQSVSFAGTGLMHWYQQKPGQAPKLLIYRASNLEAGVPSRFSGSGSGTDFSFTISSLEPEDVAVYYCQQSREYPWTFGQGTKLEIKRNDAQPAVYLFQPSPDQLHTGSASVVCLLNSFYPKDINVKWKVDGVIQDTGIQESVTEQDKDSTYSLSSTLTMSSTEYLSHELYSCEITHKSLPSTLIKSFQRSEC
notes: VH/VL: the caninized 34D03 entries of the listing; also called ID No. 10; copies: 2 + 2

Kd [3]: 21.8 nM
Kd [4]: 5.91 nM
B4: mAb1, caninized anti-IL31 antibody 34D03, canine IgGB, N434Q (antibody)
heavy: B3 heavy with F440Q
light: B3 light
notes: VH/VL: the caninized 34D03 entries of the listing; also called ID No. 16; copies: 2 + 2

Kd [1]: 997 nM
Kd [2]: 14.3 nM
B5: mAb1, caninized anti-IL31 antibody 34D03, canine IgGB, N434L (antibody)
heavy: B3 heavy with F440L
light: B3 light
notes: VH/VL: the caninized 34D03 entries of the listing; also called ID No. 14; copies: 2 + 2

Kd [3]: 3.11 nM
Kd [4]: 0.906 nM
B6: mAb1, caninized anti-IL31 antibody 34D03, canine IgGB, N434R (antibody)
heavy: B3 heavy with F440R
light: B3 light
notes: VH/VL: the caninized 34D03 entries of the listing; also called ID No. 17; copies: 2 + 2

Kd [1]: 7.86 nM
Kd [2]: 9.11 nM
B7: mAb1, caninized anti-IL31 antibody 34D03, canine IgGB, N434K (antibody)
heavy: B3 heavy with F440K
light: B3 light
notes: VH/VL: the caninized 34D03 entries of the listing; also called ID No. 13; copies: 2 + 2

Kd [1]: 26000 nM
Kd [2]: 118 nM
B8: mAb1, caninized anti-IL31 antibody 34D03, canine IgGB, N434G (antibody)
heavy: B3 heavy with F440G
light: B3 light
notes: VH/VL: the caninized 34D03 entries of the listing; also called ID No. 11; copies: 2 + 2

Kd [3]: 146000 nM
Kd [4]: 14.2 nM
B9: mAb1, caninized anti-IL31 antibody 34D03, canine IgGB, N434M (antibody)
heavy: B3 heavy with F440M
light: B3 light
notes: VH/VL: the caninized 34D03 entries of the listing; also called ID No. 15; copies: 2 + 2

Kd [3]: 554 nM
Kd [4]: 34.2 nM
B10: mAb1, caninized anti-IL31 antibody 34D03, canine IgGB, N434T (antibody)
heavy: B3 heavy with F440T
light: B3 light
notes: VH/VL: the caninized 34D03 entries of the listing; also called ID No. 19; copies: 2 + 2

Kd [3]: 6960 nM
Kd [4]: 20.2 nM
B11: mAb1, caninized anti-IL31 antibody 34D03, canine IgGB, N434S (antibody)
heavy: B3 heavy with F440S
light: B3 light
notes: VH/VL: the caninized 34D03 entries of the listing; also called ID No. 18; copies: 2 + 2

Kd [3]: 2750 nM
Kd [4]: 6.16 nM
B12: mAb1, caninized anti-IL31 antibody 34D03, canine IgGB, N434V (antibody)
heavy: B3 heavy with F440V
light: B3 light
notes: VH/VL: the caninized 34D03 entries of the listing; also called ID No. 20; copies: 2 + 2

Kd [3]: 25300 nM
Kd [4]: 1.98 nM
B13: mAb1, caninized anti-IL31 antibody 34D03, canine IgGB, N434W (antibody)
heavy: B3 heavy with F440W
light: B3 light
notes: VH/VL: the caninized 34D03 entries of the listing; also called ID No. 21; copies: 2 + 2

Kd [1]: 19600 nM
Kd [2]: 77.1 nM
B14: mAb1, caninized anti-IL31 antibody 34D03, canine IgGB, N434I (antibody)
heavy: B3 heavy with F440I
light: B3 light
notes: VH/VL: the caninized 34D03 entries of the listing; also called ID No. 12; copies: 2 + 2

IC50 (cell based potency assay) [5]: 23.7 nM
Kd [6]: 0.0851 nM
Kd [7]: 57.2 nM
B15: mAb2 of Tables 1-3, caninized anti-NGF antibody, canine IgGB (65), WT (antibody, part only; not given: Anti-NGF heavy and light variable domains, part only)
heavy, part: ASTTAPSVFPLAPSCGSTSGSTVALACLVSGYFPEPVTVSWNSGSLTSGVHTFPSVLQSSGLYSLSSMVTVPSSRWPSETFTCNVAHPASKTKVDKPVPKRENGRVPRPPDCPKCPAPEMLGGPSVFIFPPKPKDTLLIARTPEVTCVVVDLDPEDPEVQISWFVDGKQMQTAKTQPREEQFNGTYRVVSVLPIGHQDWLKGKQFTCKVNNKALPSPIERTISKARGQAHQPSVYVLPPSREELSKNTVSLTCLIKDFFPPDIDVEWQSNGQQEPESKYRTTPPQLDEDGSYFLYSKLSVDKSRWQRGDTFICAVMHEALHNHYTQESLSHSPGK
